Data reported in the supplement of paper PMC5998384.

Assays:
[1] = system: HeLa Kyoto; assay: solubility in G1/S (NP-40 vs SDS abundance) (log2 ratio); higher = more soluble; conditions: cell cycle stage: G1/S
[2] = system: HeLa Kyoto; assay: solubility change mitosis vs G1/S (difference of NP-40 vs SDS log2 ratios) (log2 ratio difference); higher = more soluble in mitosis
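Wherever solubility change mitosis vs G1/S (difference of NP-40 vs SDS log2 ratios) is given: synchronized HeLa Kyoto cells (double thymidine block for G1/S, nocodazole release for mitosis), protein amounts in NP-40 versus SDS lysates quantified by mass spectrometry, three biological replicates.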
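Wherever solubility in G1/S (NP-40 vs SDS abundance) is given: HeLa Kyoto cells arrested at G1/S by double thymidine block, proteins quantified by TMT10plex mass spectrometry in mild NP-40 versus SDS extracts, three biological replicates.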

| Sequence | solubility in G1/S (log2) [1] | solubility change mitosis (log2) [2] |
| --- | --- | --- |
| MDSSIHLSSLISRHDDEATRTSTSEGLEEGEVEGETLLIVESEDQASVDLSHDQSGDSLNSDEGDVSWMEEQLSYFCDKCQKWIPASQLREQLSYLKGDNFFRFTCSDCSADGKEQYERLKLTWQQVVMLAMYNLSLEGSGRQGYFRWKEDICAFIEKHWTFLLGNRKKTSTWWSTVAGCLSVGSPMYFRSGAQEFGEPGWWKLVHNKPPTMKPEGEKLSASTLKIKAASKPTLDPIITVEGLRKRASRNPVESAMELKEKRSRTQEAKDIRRAQKEAAGFLDRSTSSTPVKFISRGRRPDVILEKGEVIDFSSLSSSDRTPLTSPSPSPSLDFSAPGTPASHSATPSLLSEADLIPDVMPPQALFHDDDEMEGDGVIDPGMEYVPPPAGSVASGPVVGVRKKVRGPEQIKQEVESEEEKPDRMDIDSEDTDSNTSLQTRAREKRKPQLEKDTKPKEPRYTPVSIYEEKLLLKRLEACPGAVAMTPEARRLKRKLIVRQAKRDRGLPLFDLDQVVNAALLLVDGIYGAKEGGISRLPAGQATYRTTCQDFRILDRYQTSLPSRKGFRHQTTKFLYRLVGSEDMAVDQSIVSPYTSRILKPYIRRDYETKPPKLQLLSQIRSHLHRSDPHWTPEPDAPLDYCYVRPNHIPTINSMCQEFFWPGIDLSECLQYPDFSVVVLYKKVIIAFGFMVPDVKYNEAYISFLFVHPEWRRAGIATFMIYHLIQTCMGKDVTLHVSASNPAMLLYQKFGFKTEEYVLDFYDKYYPLESTECKHAFFLRLRR [CSRP2BP] | 0.391 | 0.153 |
| MDTDSQRSHLSSFTMKLMDKFHSPKIKRTPSKKGKPAEVSVKIPEKPVNKEATDRFLPEGYPLPLDLEQQAVEFMSTSAVASRSQRQKNLSWLEEKEKEVVSALRYFKTIVDKMAIDKKVLEMLPGSASKVLEAILPLVQNDPRIQHSSALSSCYSRVYQSLANLIRWSDQVMLEGVNSEDKEMVTTVKGVIKAVLDGVKELVRLTIEKQGRPSPTSPVKPSSPASKPDGPAELPLTDREVEILNKTTGMSQSTELLPDATDEEVAPPKPPLPGIRVVDNSPPPALPPKKRQSAPSPTRVAVVAPMSRATSGSSLPVGINRQDFDVDCYAQRRLSGGSHSYGGESPRLSPCSSIGKLSKSDEQLSSLDRDSGQCSRNTSCETLDHYDPDYEFLQQDLSNADQIPQQTAWNLSPLPESLGESGSPFLGPPFQLPLGGHPQPDGPLAPGQQTDTPPALPEKKRRSAASQTADGSGCRVSYERHPSQYDNISGEDLQSTAPIPSVPYAPFAAILPFQHGGSSAPVEFVGDFTAPESTGDPEKPPPLPEKKNKHMLAYMQLLEDYSEPQPSMFYQTPQNEHIYQQKNKLLMEVYGFSDSFSGVDSVQELAPPPALPPKQRQLEPPAGKDGHPRDPSAVSGVPGKDSRDGSERAPKSPDALESAQSEEEVDELSLIDHNEIMSRLTLKQEGDDGPDVRGGSGDILLVHATETDRKDLVLYCEAFLTTYRTFISPEELIKKLQYRYEKFSPFADTFKKRVSKNTFFVLVRVVDELCLVELTEEILKLLMELVFRLVCNGELSLARVLRKNILDKVDQKKLLRCATSSQPLAARGVAARPGTLHDFHSHEIAEQLTLLDAELFYKIEIPEVLLWAKEQNEEKSPNLTQFTEHFNNMSYWVRSIIMLQEKAQDRERLLLKFIKIMKHLRKLNNFNSYLAILSALDSAPIRRLEWQKQTSEGLAEYCTLIDSSSSFRAYRAALSEVEPPCIPYLGLILQDLTFVHLGNPDYIDGKVNFSKRWQQFNILDSMRCFQQAHYDMRRNDDIINFFNDFSDHLAEEALWELSLKIKPRNITRRKTDREEKT [RAPGEF1] | -0.18 | 0.157 |
| MDVDAEREKITQEIKELERILDPGSSGSHVEISESSLESDSEADSLPSEDLDPADPPISEEERWGEASNDEDDPKDKTLPEDPETCLQLNMVYQEVIQEKLAEANLLLAQNREQQEELMRDLAGSKGTKVKDGKSLPPSTYMGHFMKPYFKDKVTGVGPPANEDTREKAAQGIKAFEELLVTKWKNWEKALLRKSVVSDRLQRLLQPKLLKLEYLHQKQSKVSSELERQALEKQGREAEKEIQDINQLPEEALLGNRLDSHDWEKISNINFEGSRSAEEIRKFWQNSEHPSINKQEWSREEEERLQAIAAAHGHLEWQKIAEELGTSRSAFQCLQKFQQHNKALKRKEWTEEEDRMLTQLVQEMRVGSHIPYRRIVYYMEGRDSMQLIYRWTKSLDPGLKKGYWAPEEDAKLLQAVAKYGEQDWFKIREEVPGRSDAQCRDRYLRRLHFSLKKGRWNLKEEEQLIELIEKYGVGHWAKIASELPHRSGSQCLSKWKIMMGKKQGLRRRRRRARHSVRWSSTSSSGSSSGSSGGSSSSSSSSSEEDEPEQAQAGEGDRALLSPQYMVPDMDLWVPARQSTSQPWRGGAGAWLGGPAASLSPPKGSSASQGGSKEASTTAAAPGEETSPVQVPARAHGPVPRSAQASHSADTRPAGAEKQALEGGRRLLTVPVETVLRVLRANTAARSCTQKEQLRQPPLPTSSPGVSSGDSVARSHVQWLRHRATQSGQRRWRHALHRRLLNRRLLLAVTPWVGDVVVPCTQASQRPAVVQTQADGLREQLQQARLASTPVFTLFTQLFHIDTAGCLEVVRERKALPPRLPQAGARDPPVHLLQASSSAQSTPGHLFPNVPAQEASKSASHKGSRRLASSRVERTLPQASLLASTGPRPKPKTVSELLQEKRLQEARAREATRGPVVLPSQLLVSSSVILQPPLPHTPHGRPAPGPTVLNVPLSGPGAPAAAKPGTSGSWQEAGTSAKDKRLSTMQALPLAPVFSEAEGTAPAASQAPALGPGQISVSCPESGLGQSQAPAASRKQGLPEAPPFLPAAPSPTPLPVQPLSLTHIGGPHVATSVPLPVTWVLTAQGLLPVPVPAVVSLPRPAGTPGPAGLLATLLPPLTETRAAQGPRAPALSSSWQPPANMNREPEPSCRTDTPAPPTHALSQSPAEADGSVAFVPGEAQVAREIPEPRTSSHADPPEAEPPWSGRLPAFGGVIPATEPRGTPGSPSGTQEPRGPLGLEKLPLRQPGPEKGALDLEKPPLPQPGPEKGALDLGLLSQEGEAATQQWLGGQRGVRVPLLGSRLPYQPPALCSLRALSGLLLHKKALEHKATSLVVGGEAERPAGALQASLGLVRGQLQDNPAYLLLRARFLAAFTLPALLATLAPQGVRTTLSVPSRVGSESEDEDLLSELELADRDGQPGCTTATCPIQGAPDSGKCSASSCLDTSNDPDDLDVLRTRHARHTRKRRRLV [SNAPC4] | 0.0147 | -0.0345 |
| MDVHDLFRRLGAGAKFDTRRFSADAARFQIGKRKYDFDSSEVLQGLDFFGNKKSVPGVCGASQTHQKPQNGEKKEESLTERKREQSKKKRKTMTSEIASQEEGATIQWMSSVEAKIEDKKVQRESKLTSGKLENLRKEKINFLRNKHKIHVQGTDLPDPIATFQQLDQEYKINSRLLQNILDAGFQMPTPIQMQAIPVMLHGRELLASAPTGSGKTLAFSIPILMQLKQPANKGFRALIISPTRELASQIHRELIKISEGTGFRIHMIHKAAVAAKKFGPKSSKKFDILVTTPNRLIYLLKQDPPGIDLASVEWLVVDESDKLFEDGKTGFRDQLASIFLACTSHKVRRAMFSATFAYDVEQWCKLNLDNVISVSIGARNSAVETVEQELLFVGSETGKLLAVRELVKKGFNPPVLVFVQSIERAKELFHELIYEGINVDVIHAERTQQQRDNTVHSFRAGKIWVLICTALLARGIDFKGVNLVINYDFPTSSVEYIHRIGRTGRAGNKGKAITFFTEDDKPLLRSVANVIQQAGCPVPEYIKGFQKLLSKQKKKMIKKPLERESISTTPKCFLEKAKDKQKKVTGQNSKKKVALEDKS [DDX52] | -1.37 | 1.04 |
| MEAPEGGGGGPAARGPEGQPAPEARVHFRVARFIMEAGVKLGMRSIPIATACTIYHKFFCETNLDAYDPYLIAMSSIYLAGKVEEQHLRTRDIINVSNRYFNPSGEPLELDSRFWELRDSIVQCELLMLRVLRFQVSFQHPHKYLLHYLVSLQNWLNRHSWQRTPVAVTAWALLRDSYHGALCLRFQAQHIAVAVLYLALQVYGVEVPAEVEAEKPWWQVFNDDLTKPIIDNIVSDLIQIYTMDTEIP [FAM58A] | -0.46 | 0.235 |
| MEASRCRLSPSGDSVFHEEMMKMRQAKLDYQRLLLEKRQRKKRLEPFMVQPNPEARLRRAKPRASDEQTPLVNCHTPHSNVILHGIDGPAAVLKPDEVHAPSVSSSVVEEDAENTVDTASKPGLQERLQKHDISESVNFDEETDGISQSACLERPNSASSQNSTDTGTSGSATAAQPADNLLGDIDDLEDFVYSPAPQGVTVRCRIIRDKRGMDRGLFPTYYMYLEKEENQKIFLLAARKRKKSKTANYLISIDPVDLSREGESYVGKLRSNLMGTKFTVYDRGICPMKGRGLVGAAHTRQELAAISYETNVLGFKGPRKMSVIIPGMTLNHKQIPYQPQNNHDSLLSRWQNRTMENLVELHNKAPVWNSDTQSYVLNFRGRVTQASVKNFQIVHKNDPDYIVMQFGRVADDVFTLDYNYPLCAVQAFGIGLSSFDSKLACE [TULP3] | 0.0464 | -0.00836 |
